Laboratory results as given in PMC4763541, “Pitchfork and Gprasp2 Target Smoothened to the Primary Cilium for Hedgehog Pathway Activation” (PLoS ONE, 2016).

Target: T1, full-length hGPRASP2, purified recombinant (human, UniProt Q96D09 1-838)
T1 construct: human G protein-coupled receptor associated sorting protein 2 (GPRASP2), full length, cloned into pETM-11; source: E. coli Rosetta2 (DE3), purified (IMAC, TEV cleavage, second IMAC, SEC on Superdex 200); not shown: His6, N-terminal, cleaved
T1 sequence (looked up): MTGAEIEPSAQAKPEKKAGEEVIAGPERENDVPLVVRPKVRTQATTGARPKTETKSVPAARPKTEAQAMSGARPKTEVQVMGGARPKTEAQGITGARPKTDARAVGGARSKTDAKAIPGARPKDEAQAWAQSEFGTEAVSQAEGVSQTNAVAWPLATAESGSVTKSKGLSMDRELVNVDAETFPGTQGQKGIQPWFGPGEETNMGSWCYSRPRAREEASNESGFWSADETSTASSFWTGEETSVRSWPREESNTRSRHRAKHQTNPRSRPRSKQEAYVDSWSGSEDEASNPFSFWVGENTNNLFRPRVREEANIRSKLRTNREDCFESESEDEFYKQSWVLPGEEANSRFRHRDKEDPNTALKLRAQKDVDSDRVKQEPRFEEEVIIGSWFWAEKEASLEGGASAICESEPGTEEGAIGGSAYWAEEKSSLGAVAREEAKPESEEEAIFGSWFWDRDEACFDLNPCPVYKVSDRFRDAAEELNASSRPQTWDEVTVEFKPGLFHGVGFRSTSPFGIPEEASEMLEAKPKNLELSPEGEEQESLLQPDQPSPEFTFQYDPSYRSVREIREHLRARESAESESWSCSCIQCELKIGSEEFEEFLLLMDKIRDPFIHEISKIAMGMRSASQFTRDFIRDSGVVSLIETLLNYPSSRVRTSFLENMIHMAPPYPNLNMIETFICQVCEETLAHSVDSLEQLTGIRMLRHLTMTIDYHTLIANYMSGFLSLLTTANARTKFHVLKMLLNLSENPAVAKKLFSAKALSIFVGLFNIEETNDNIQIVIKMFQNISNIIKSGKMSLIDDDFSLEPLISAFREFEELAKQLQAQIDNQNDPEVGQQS
Assay: NMR titration; 1D 1H NMR (…), 800 MHz, 298 K; 100 μM peptide before and after addition of hGPRASP2 to 4 μM (1:25 hGPRASP2:peptide); 50 mM Tris.HCl pH 8, 300 mM NaCl, 0.01% 1-thioglycerol; line broadening and loss of intensity of the peptide signals
Conditions: both partners purified

binding result: binds
Binder: KATLLIWRRTWCRL (peptide, UniProt Q99835 539-552, looked up, source: synthetic peptide (PSL GmbH)) [hSMO-WT peptide (human SMO aa 539-552)]
